Measurements published in a protein production outcome set (Wang et al. 2014).

Assay: label from the status in PepcDB records
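Further: failed if final PepcDB status was selected cloned or expressed and not failed if soluble or beyond.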

| Sequence | protein production |
| --- | --- |
| MNNIAAIVVTYNRKKLLKKCIKGLKEQTEKADIIIIDNMSTDGTLEMLQPLINSNEIIYHSTGKNIGGAGGFYEGIKLAYEMGYKYFWLMDDDCIPTSSALEKLMNVVNEKKNFGFLVSKALWKDGEVCKMNIPKIKLTKQVNDFSKKVIQIKMGTFVSFLTSREVVEKVGLPIKEFFIWGDDLEYSQRISQKFPSYLVTNSLVYHETKLNEGSNIALDSVDRLKRYKLAYRNEVVLFKEMGLQGQMYQYFRLVLHCGRILFKSKDHKKERLNIIFQGTRAGYNFHPVIKNIK | failed |
| SSLICSISNEVPEHPCVSPVSNHVYERRLIEKYIAENGTDPINNQPLSEEQLIDIKVAHPIRPKPPSATSIPAILKALQDEWDAVMLHSFTLRQQLQTTRQELSHALYQHDAACRVIARLTKEVTAAREALATLKPQAGLIVPQAVPSSQPSVVGAGEPMDLGELVGMTPEIIQKLQDKATVLTTERKKRGKTVPEELVKPEELSKYRQVASHVGLHSASIPGILALDLCPSDTNKILTGGADKNVVVFDKSSEQILATLKGHTKKVTSVVFHPSQDLVFSASPDATIRIWSVPNASCVQVVRAHESAVTGLSLHATGDYLLSSSDDQYWAFSDIQTGRVLTKVTDETSGCSLTCAQFHPDGLIFGTGTMDSQIKIWDLKERTNVANFPGHSGPITSIAFSENGYYLATAADDSSVKLWDLRKLKNFKTLQLDNNFEVKSLIFDQSGTYLALGGTDVQIYICKQWTEILHFTEHSGLTTGVAFGHHAKFIASTGMDRSLKFYSL | not failed |
| MQQRRPVRRALLSVSDKAGIVEFAQALSARGVELLSTGGTARLLAEKGLPVTEVSDYTGFPEMMDGRVKTLHPKVHGGILGRRGQDDAIMEEHQIQPIDMVVVNLYPFAQTVAREGCSLEDAVENIDIGGPTMVRSAAKNHKDVAIVVKSSDYDAIIKEMDDNEGSLTLATRFDLAIKAFEHTAAYDSMIANYFGSMVPAYHGESKEAAGRFPRTLNLNFIKKLDMRYGENSHQQAAFYIEENVKEASVATATQVQGKALSYNNIADTDAALECVKEFAEPACVIVKHANPCGVAIGNSILDAYDRAYKTDPTSAFGGIIAFNRELDAETAQAIISRQFVEVIIAPSASEEALKITAAKQNVRVLTCGQWGERVPGLDFKRVNGGLLVQDRDLGMVGAEELRVVTKRQPSEQELRDALFCWKVAKFVKSNAIVYAKNNMTIGIGAGQMSRVYSAKIAGIKAADEGLEVKGSSMASDAFFPFRDGIDAAAAAGVTCVIQPGGSIRDDEVIAAADEHGIAMLFTDMRHFRH | not failed |
| MNILLAGGSGLIGQELVRGMGEEHHYTVLGRDKDAIQKIFTTKASSLSWDELNTQDASRFDAVINLCGVNIAISRWTPKIKEEIISSRVQTTENLLHWILQQNAKPRFYCANAVGIYGLQENGDATDLTEDTAINWEHPKDYLSEVGIRWQQALQKAEEAGLPVTSTRFGVVLKKGKGFLGKLYPSFICGLGSTIGDGRQYLSWIDSEDLVNAYRFLLNHPEITGPVNVTSPNPCMQREFAKAFAKSLHRPLLLWTPAFIIHLLFGEMGDCLINHGQKVKPKRLLEAGFEFKWPDIEKALKHQYSAILEHHHHHH | not failed |
| MIELIIGAVLLSLLIYGIFIEPHLMKVRHVKIAQKQNLKIAHFTDTHFAWHTTSRRFKKFARNIANEQPDLIIFSGDLFDKVAWAKNRDWTDLLTILSELKAPLGKFAILGNHDFDDEKSSRFVEEFLEKAGFVLLKNSSVVKDNLSISGVDDWREGRPDFELEPIDATFSLLALHEPDTILDMETIKEFDLILSGHSHGGQIRIGNWRLRNKGSSSADAGLYQLNDRTKLYVNRGIGLTFLPIRFGVPPEIVYYYI | failed |
| MALYWNLRLSVKNWRSIQNNEKLIFQVLWPLKLLVALKFISTLEERLIIPESDKPHTPPEGRLPDATKGFDLLRDVFAKRMGLSDKDIVALSGSHTPISPSQS | failed |
| MIYLHAIDPIAFSLGPVKVHWYGLMYLAGFGAAWCLGRQRIQAGRLLGVNIDGFSDLLFYAMMGVVLGGRVGYMLFYAFHDFLQEPLLLFRVWEGGMSFHGGLIGVLLAVAWWSRRQRMHMFDVVDFCAPLVPVGLGFGRLGNFIGGELWGKLTHNGWGVIFPRAPLSDVPAGQLAMQDVINFVQIQEHYAAGLLGHYARHPSQLYEAFLEGLVMFIVLWLFSRKPRPRYAVSGLFALLYGVFRFLVEFVRMPDNGVYVAFGWLTRGQILSLPLIVIGLFLFWLSCRSPVLQPVPAPEVAK | failed |
| MALTFYQYPKCGTCQKAKKWLDQHGIEVNSVHIVEQPPSKEELKQLYEQSGLELKKFFNTSGKKYRELGLKDKVKEASEDELLETLASDGMLIKRPILTDGDKVTVGFKEAEYEETWKK | failed |
| MYLEKLQQWRYATADFSGAHITDDVLDKLLNTTRLTASSYGLQPYCTLVIRNKGLREQLVNHSFGQQKVADSSALVIFAAKTGAVADIVDPYISELSQQRQLTNEEAENTRNYFTQKLQAMSAATRKEWAVRQAYIGLGTFLLAAAELEVDSCPMEGIEHDAYDNILSLKDLGLSTVFACPVGYRSEADTTQFQKKVRQPLSRFKVVL | not failed |
| MQTASRAHADSRHGLFLILFSAMLWGTVGITTKALYGLADTTPLSIGFFRLALAVPVLVAACRLATGPAMFRVARRDLGTMIVVGAMTALYQVCYFAAIRQIGVAAATLVTLCTAPVIVALLSAILTGERPSGRVLLSLACALAGTALLVGLRPLAGEGGNIPLGIAQALGSAFSYASVTVASRTLAGRYHPLQPVAIGFAAGALFLLPTALADGLVLTYPAAGWVLLLYLGVVPTALAYALFLAGMRTTTATAASICTLLEPLVSTVLAWLIFGERLGPLGAVGAVLLFGAIGLLARPVRRRQSSAA | failed |
| MLWRKRLFAHLYPGLSARHEALVAERKRALFREALRRARPERVLEIGPGPGTNLAHLPEGVAYLALEPNPFFHPRLREEARKRGLALTLLPGRAEAIPLPGGSVDLVVATLVLCSVADPEKAIEEVHRVLRPGGAYLFLEHVAAPKGAPLRLLQEAATPFFVFFGDGCHPNRKTLAQIQARFPRVEAEAFSLPLPVVAPHVAGLAFKELEHHHHHH | failed |
| MVNRCFFFNRRICFMELFLLRHGKPDIRRSMAIRSVDMYSWIGEYDAAGILDSPDASTVAASEGKFIVSSPMPRALESVAALGLEPDIIIDELHEAPLPVFNIPLLKLTPLVWAALFRIFWMAGGSGGVETFSSVKIRAKLVSCELDKMAETHGSVLSVGHGFMNALVARELQKAGWKRQKVGPSGYWSGIKLVR | failed |
| MRITRIMKTAKTARTTTSTRTSGARQAAAPLIKFSLFALVTMVATTLLAATIVNISLTPEHTYRAVFSDVTGLEKGDDIRVAGVRVGQVEGIRIKDRTLAEVTFTVGEDRPLLNSTGAVVRYRNLVGQRYVALTEGAGDATRLKPGATIPLSRTQPALDLNALLNGFKPLFAALSPQDVNQLATEIIRTLQGEGGTVNSLLAHTASLTTTLAGRDKLIGSVIDNLNTVLETLDQRGARFSGLLKQLRRVISGLSADRKPIGQSLVGIGDLTDATSGLLKDARPPLKDDIAELTDLTGTLNKNENTVEGVLKRLPNKLGELTGTASYGSWFNFYLCDFDGRIVLPKTKQVLTPELHVARARCGA | failed |
| DVTEQKQAEAELHQRDRLLQAVAEAANWLVVEMNYDTAIEKALAVVGEAAQADRAYLFKNHPHPITGKRAVSLQFEWYGSDLQPSIQDWQNQLYQSTELSRWYSVLSSGKSINELRRKLPVAERELLERQGIQSLLLVPLGLEDQFWGYLGLADCTQERYWSRHEESTLLTMAASISGAWQRQQVEEKIRYQALHDL | not failed |
| MAVQENLLLGAKASKNATLTLVFLSILKGVVGFYSGSASLIADAIHTSLDIFTSLAVWIGLKLSMRGSEEKFPYGYYKADNLVSLFVSIIILFSGVELVREALLNIASPVEIKLQGIALGTAVFSVIAMYALSQYKFKVGKQIDSQALIADALHSYTDVFSSLIVAITIIGSLLGVLWLDSAGVLVISLMIFKLGIGMAKDSILTLMDAWLDKDSIERIRQNVGSIQGVKTVDEIRLRKSGLVVFGEIEIEIEGDASLKRVEMLFEEIEKTVKNEVKNLEHLVVNVKPEKISVMKIAVPVLMQEGLHSKVSRHFSKAPYFIFIELENNDIISWDVSENPAAGLEKKKGLKAAEFLKDQGVNVLIAGEIGEAPFHTLRDNFVKLLQMPEEIEDVEQVVKKVSELNTLTAPTE | failed |
